From patent publication US20190202900A1 (INFLARX, published 2019)

Molecular target: T1, human endogenous C5a (eC5a) generated in human zymosan-activated plasma (human, UniProt P01031 678-751)
T1 sequence: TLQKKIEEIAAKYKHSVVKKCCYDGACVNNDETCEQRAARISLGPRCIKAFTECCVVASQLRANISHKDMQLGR
Test: cell-based or functional assay

B1: IFX-1 (antibody, IgG4, V domains shown)
VH: QVQLQQSGPQLVRPGTSVKISCKASGYSFTTFWMDWVKQRPGQGLEWIGRIDPSDSESRLDQRFKDRATLTVDKSSSTVYMQLSSPTSEDSAVYYCARGNDGYYGFAYWGQGTLVTVSS
VL: DIVLTQSPASLAVSLGQRATISCKASQSVDYDGDSYMKWYQQKPGQPPKLLIYAASNLQSGIPARFSGSGSGTDFTLNIHPVEEEDAATYYCQQSNEDPYTFGGGTKLEIK
  blocking of eC5a-induced CD11b up-regulation on human granulocytes (ZAP-CD11b assay), Ab:Ag ratios 1:1 and 2:1: ≤ 98%
  decrease of CD11b expression on human granulocytes (ZAP-CD11b assay, flow cytometry MFI), Ab:Ag molar ratio 0.5:1: > 80%
